Experiments:
[1] = biological target: T1, Taq DNA polymerase (Thermus aquaticus, UniProt P19821 P19821:1-832); assay: FP filter; 55C; IT50 41C; settings: tags: rTaq, 94 kDa, Roche Molecular Systems; label: end-labeled
[2] = biological target: T1, Taq DNA polymerase; assay: FP filter; Tris buffer 55C; 3.8 pM at 40C; Tricine 5.6 (40C), 18 (55C) pM; IT50 56C; settings: tags: rTaq, 94 kDa, Roche Molecular Systems; label: end-labeled
Method: (§1) Binding interactions of individual sequences with Taq polymerase was measured by nitrocellulose filter binding at 55° C. […] Clones 6 (SEQ ID NO:78), 22 (SEQ ID NO:81) and 28 (SEQ ID NO:87) all show high-affinity binding to Taq polymerase at 55° C. as characterized by their K_d values in the low picomolar range.
(§2) The binding analysis shown in FIGS. 4A–E were performed in the Tris buffer at 55° C. […] (Table 7).

[3] = biological target: T1, Taq DNA polymerase; assay: inhibition; 45C; IT50 56.1C; settings: tags: rTaq, 94 kDa, Roche Molecular Systems; label: end-labeled
Method: (§3) As set forth in Table 12, the $IT50$ values of truncated ligands TQH6-Tr, TQH22-Tr and TQH28-Tr were decreased by 5–9° C. upon truncation.
(§4) Measurement of $IC50$ Values. $IC50$ values (the concentration of inhibitor required to produce 50% of the product in the assay) were obtained using hairpin extension assays. In a typical inhibition assay, a 20 μL reaction contained either 0.25 (0.04) pmoles of Taq polymerase (5 U) (1 U), 0.125 pmoles of Tth polymerase (2.5 U) or 0.05 pmoles of TZ05 polymerase (1 U), oligonucleotide inhibitor (at varying concentrations), […] dNTPs in either Tris or Tricine buffer (Taq and Tth pol) or TZ05 buffer (TZ05 pol). Gel purified, 5'-end-labeled hairpin DNA substrate (DNA-HP; 5'-[…]-3' (SEQ ID NO:6)) was then added to a final concentration of 250 nM and the reactions were incubated for a given time at the desired temperature as indicated in the figure legends (30 minutes for TZ05 pol). The reaction was stopped by adding 5 μL of 0.5 M EDTA (pH 8.0) followed by formamide gel loading buffer. Extension products were resolved on 10% polyacrylamide gels under denaturing conditions and quantitated by phosphorimager. The amount of products formed in the presence of inhibitor was normalized to the product formed in the absence of an inhibitor to obtain the percent of product.

[4] = biological target: T1, Taq DNA polymerase; assay: FP filter; Tris buffer 55C; 5 pM at 40C; Tricine 9.4 (40C), 116 (55C) pM; IT50 52C; settings: tags: rTaq, 94 kDa, Roche Molecular Systems; label: end-labeled
Method: as §1, §2

[5] = biological target: T1, Taq DNA polymerase; assay: inhibition; 45C; settings: tags: rTaq, 94 kDa, Roche Molecular Systems; label: end-labeled
Method: as §3, §4

[6] = biological target: T1, Taq DNA polymerase; assay: FP filter; 55C; IT50 52C; settings: tags: rTaq, 94 kDa, Roche Molecular Systems; label: end-labeled
[7] = biological target: T1, Taq DNA polymerase; assay: FP filter; printed as >>1000; 55C; IT50 <40C; settings: tags: rTaq, 94 kDa, Roche Molecular Systems; label: end-labeled
Method: as §1

[8] = biological target: T1, Taq DNA polymerase; assay: FP filter; Tm 51C; settings: tags: rTaq, 94 kDa, Roche Molecular Systems; stem-loop
Method: Room Temperature. To assess the affinity of oligonucleotide libraries and individual ligands the nitrocellulose filter binding technique was used. Briefly, gel-purified ^32P ss-DNA pools labeled at the 5' end were suspended in the binding buffer, heated to 80° C., chilled on ice and then brought to room temperature. The DNA (5–10 pM) was then incubated for 15 minutes at room temperature with varying amounts of the target polymerase in 50 µL of the appropriate binding buffer containing 0.1 µg of tRNA and 0.01% hSA. The DNA concentrations were kept lower than 100 pM to ensure equilibrium in the presence of excess protein concentrations. […] The amount of DNA bound to the filters was quantitated by measuring the radioactivity of the filters by liquid scintillation counting. The quantity of DNA bound to filters in the absence of protein was used for background correction. […]
[1]The boxed region denotes the conserved sequence element with the predicted stem-loop structure identified in the Family I sequences; vertical lines signify Watson-Crick type base pairing; circles show an uncommon G-T base pair. [2]K_d values were measured by the nitrocellulose filter binding technique described in Example 1. [3]Melting transitions (T_m) were measured in a PCR buffer containing 10 mM Tris-HCl, 50 mM KCl, 2 mM MgCl_2, pH 8.3, at a 1° C./min temperature ramp.

[9] = biological target: T1, Taq DNA polymerase; assay: FP filter; Tris buffer 55C; 5 pM at 40C; Tricine 4.6 (40C), 36 (55C) pM; IT50 54.8C; settings: tags: rTaq, 94 kDa, Roche Molecular Systems; label: end-labeled
Method: as §1, §2

[10] = biological target: T1, Taq DNA polymerase; assay: FP filter; 55C; IT50 44.6C; settings: tags: rTaq, 94 kDa, Roche Molecular Systems; label: end-labeled
[11] = biological target: T1, Taq DNA polymerase; assay: FP filter; 55C; IT50 52.3C; settings: tags: rTaq, 94 kDa, Roche Molecular Systems; label: end-labeled
[12] = biological target: T1, Taq DNA polymerase; assay: FP filter; 55C; IT50 53.7C; settings: tags: rTaq, 94 kDa, Roche Molecular Systems; label: end-labeled
Method: as §1

T1 sequence (P19821 whole entry, one chain of several): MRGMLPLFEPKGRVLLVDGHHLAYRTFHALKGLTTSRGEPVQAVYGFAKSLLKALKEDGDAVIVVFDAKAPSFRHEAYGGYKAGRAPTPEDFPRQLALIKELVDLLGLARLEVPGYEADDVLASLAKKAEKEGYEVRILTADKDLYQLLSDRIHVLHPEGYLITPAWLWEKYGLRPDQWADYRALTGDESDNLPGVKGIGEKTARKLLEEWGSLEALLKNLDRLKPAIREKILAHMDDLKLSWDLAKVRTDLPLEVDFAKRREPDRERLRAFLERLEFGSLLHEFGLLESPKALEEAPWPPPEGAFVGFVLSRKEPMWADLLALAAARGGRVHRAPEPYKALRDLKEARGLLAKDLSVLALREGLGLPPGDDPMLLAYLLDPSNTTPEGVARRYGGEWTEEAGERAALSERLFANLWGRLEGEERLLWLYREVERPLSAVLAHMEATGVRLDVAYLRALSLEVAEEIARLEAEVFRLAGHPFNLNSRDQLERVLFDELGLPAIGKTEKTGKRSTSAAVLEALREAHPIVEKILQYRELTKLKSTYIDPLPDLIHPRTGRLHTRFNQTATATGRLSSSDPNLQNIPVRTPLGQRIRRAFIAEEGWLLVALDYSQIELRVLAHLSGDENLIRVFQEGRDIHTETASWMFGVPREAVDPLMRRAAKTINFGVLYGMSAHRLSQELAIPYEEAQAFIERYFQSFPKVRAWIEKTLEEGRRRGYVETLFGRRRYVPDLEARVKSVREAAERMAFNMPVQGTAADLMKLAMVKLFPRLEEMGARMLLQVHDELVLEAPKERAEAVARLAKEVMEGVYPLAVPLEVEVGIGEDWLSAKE

B1: ligand 20 (ssDNA)
DNA: TTCTCGGTTGGTCTCTGGCGGAGCGATCAGACACGAAACATTGCGGACTTTTGTCTTGTGTATGATTCGCTTTTCCC
B1 gave a Kd [1] of 105 pM.

B2: ligand 22 (TQH22) / TZ3 (ssDNA)
DNA: TTCTCGGTTGGTCTCTGGCGGAGCATACACGACGTCATTCTAGCGTTTTGACGTCTTGTGTATGATTCGCTTTTCCC
In the case of B2, the Kd [2] is reported as 14 pM and the IC50 [3] is reported as 37000 pM.

B3: ligand 28 (TQH28) (ssDNA)
DNA: TTCTCGGTTGGTCTCTGGCGGAGCAGGAGCAAGAATCATTCTTAGCGTTTTGATTCTTGTGTATGATTCGCTTTTCCC
For B3, the Kd [4] was 13.5 pM and the IC50 [5] was 37000 pM.

B4: ligand 36 (Taq selection) (ssDNA)
DNA: TTCTCGGTTGGTCTCTGGCGGAGCAGAAGCAAGAATCATTCTTAGCGTTTTGATTCTTGTGTATGATTCGCTTTTCCC
B4 showed a Kd [6] of 31 pM.

B5: ligand 18 (ssDNA)
DNA: TTCTCGGTTGGTCTCTGGCGGAGCATACACGACGTCATTCTAGCGTTTTGTCTTGTGTATGATTCGCTTTTCCC
With B5 the Kd [7] was greater than 1000 pM.

B6: Trnc.A-30 (30-mer) (ssDNA)
DNA: AAGACCAGACAATGTACAGTATTGGCCTGA
modifications: [none]
In the case of B6, the Kd [8] is reported as 600 pM.

B7: ligand 6 (TQH6) (ssDNA)
DNA: TTCTCGGTTGGTCTCTGGCGGAGCGAATCATACGAAGACATTCCAACGTTTTGTCTTGTGTATGATTCGCTTTTCCC
B7 gave a Kd [9] of 8.5 pM and an IC50 [5] of 30000 pM.

B8: ligand 10 (ssDNA)
DNA: TTCTCGGTTGGTCTCTGGCGGAGCGGATCAGACACGAAACATTGCGGACTTTTGTCTTGTGTATGATTCGCTTTTCCC
B8 was tested, and the Kd [10] was 30 pM.

B9: ligand 15 (ssDNA)
DNA: TTCTCGGTTGGTCTCTGGCGGAGCATGCACAGCGACATTCTCAGCGTTTTGTCGTCTTGTGTATGATTCGCTTTTCCC
B9 was tested, and the Kd [11] was 13.8 pM.

B10: ligand 19 (ssDNA)
DNA: TTCTCGGTTGGTCTCTGGCGGAGCGAATCGGACATCAAGGGTTCCAGCAGTGCTTCTTGTGTATGATTCGCTTTTCCC
Work on B10 yielded a Kd [12] of 11.2 pM.

— US6183967, “Nucleic acid ligand inhibitors to DNA polymerases” (NeXstar Pharmaceuticals)
